These results are taken from US20260242455A1 (SCHOLAR ROCK, published 2026).

B1: Ab1 (parental), IgG4 (S228P)/lambda (antibody, V domains shown)
VH: QIQLVQSGGGVVQPGRSLRLSCAASGFTFSSYGMHWVRQAPGKGLEWVAVISYDGSNKYYADSVKGRFTISRDNSKNTLYLQMNSLRAEDTAVYYCARDLLVRFLEWSHYYGMDVWGQGTTVTVSS
VL: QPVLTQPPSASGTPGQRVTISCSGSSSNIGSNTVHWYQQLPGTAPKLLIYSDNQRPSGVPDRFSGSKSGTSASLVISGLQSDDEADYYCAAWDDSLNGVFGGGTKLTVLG
notes: Fully human IgG4 (S228P), lambda; also called parental Ab1 IgG4; copies: 2 + 2
B2: Ab6 (germlined Ab5), IgG4 (S228P)/lambda (antibody, V domains shown)
VH: B1 VH with I2V, Q6E, T28A, S56N, Y110K
VL: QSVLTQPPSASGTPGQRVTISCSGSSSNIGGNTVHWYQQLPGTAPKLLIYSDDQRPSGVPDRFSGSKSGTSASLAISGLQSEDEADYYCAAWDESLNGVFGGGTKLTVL
notes: Human IgG4/lambda
B3: Ab4 (germlined Ab3), IgG4 (S228P)/lambda (antibody, V domains shown)
VH: B1 VH with I2V, Q6E, T28A, N57I, Y110K
VL: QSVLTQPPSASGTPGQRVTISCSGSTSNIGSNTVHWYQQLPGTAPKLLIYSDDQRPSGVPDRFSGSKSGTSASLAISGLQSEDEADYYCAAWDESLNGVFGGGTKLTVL
notes: Human IgG4/lambda
B4: Ab9 (antibody, V domains shown)
VH: QVQLVQSGAEVKKPGSSVKVSCKASGGTFSSYAISWVRQAPGQGLEWMGGIIPIFGTANYAQKFQGRVTITADESTSTAYMELSSLRSEDTAVYYCANHGLMDDSSGYYLSNAFDIWGQGTMVTVSS
VL: not shown
B5: Ab8 (antibody, V domains shown)
VH: QIQLVQSGAEVKKPGASVKVSCKASGYTFTSYGISWVRQAPGQGLEWMGWISAYNGNTNYAQKLQGRVTMTTDTSTSTAYMELSSLRSEDTAVYYCARVGFYDYVWGSYPYDAFDIWGQGTMVTVSS
VL: EIVMTQSPGTLSLSPGERATLSCRASQSVSSNYLAWYQQKPGQAPRLLIYDASNRATGIPARFSGSGSGTDFTLTISSLEPEDFALYYCQQYGTSPLTFGGGTKLEIKR
B6: Ab7 (antibody, V domains shown)
VH: QVQLQQSGAEVKKPGASVKVSCKASGYTFTSYYMHWVRQAPGQGLEWMGIINPSGGSTSYAQKFQGRVTMTRDTSTSTVYMELSSLRSEDTAVYYCARESLIRFLEDPQQGGMDVWGQGTTVTVSS
VL: QSALTQPASVSGSPGQSLTISCTGTSSDIGGYNYVSWYQQHPGKAPKLIIYDVTDRPSGVSGRFSGSKSGNTASLTISGLQTEDEAEYFCNSWTRSNNYIFGGGTKLTVLG
B7: Ab10 (antibody, V domains shown)
VH: EVQLVQSGGGVVQSGRSLRLSCVASGFSFSNYGMHWVRQAPGKGLEWLAFIWYDGSNKWYADSVKGRFTISRDNSKNALYLQMNSLRAEDTAVYYCARDRYSSSWGGGFDYWGQGTVLTVSS
VL: NFMLTQPHSVSESPGRTVTIPCSGRGGSIASDSVQWYQQRPGSAPTTIIYEDNQRPSGVPDRFSGSVDSSSNSASLTISGLRTEDEADYYCQSYDASSLWVFGGKTKLTVLG
notes: also called anti-pro/latent GDF8 antibody, Ab10
B8: Ab11 (antibody, V domains shown)
VH: QLQLQQSGGGLVKPGGSLRLSCAASGFTFSSYSMNWVRQAPGKGLEWVSSISSSSSYIYYADSVKGRFTISRDNAKNSLYLQMNSLRAEDTAVYYCVRDRHSLGDFDYWGQGTLVTVSS
VL: SSELTQPSVSVSPGQTATITCSGDKLGDKYASWYQQKPGQSPVLVIYQDTKRPSGIPARFSGSNSGNTATLTISGTQAMDEAAYYCQAWDSTTVVFGGGTKLTVLG
notes: Fully human antibody
B9: Ab13 (antibody, V domains shown)
VH: EVQLVQSGGGLVQPGRSLRLSCAASGFTFDDYAMHWVRQAPGKGLEWVSGISWNSGSIGYADSVKGRFTISRDNAKNSLYLQMNSLRAEDTALYYCAKDTSNGGYSSSSFDYWGQGTLVTVSS
VL: QSALTQPASVSGSPGQSITISCTGTSSDVGGYNYVSWYQQHPGTAPKLMIYDVSYRPSGVSNRFSGSKSGNTASLTISGLQAEDEADYYCSSYTSSSTLVFGTGTKVTVLG
notes: Fully human antibody
B10: Ab15 (antibody, V domains shown)
VH: EVQLVQSGGGLVQPGRSLRLSCAASGFTFDDYAMHWVRQAPGKGLEWVSGISWNSGSIGYADSVKGRFTISRDNSKNTLYLQMNSLRAEDTAVYYCAKVDGLEYSSGHNFDYWGQGTLVTVSS
VL: QSALTQPPSVSGSPGQSVTISCTGSSSDVGYYDHVSWYQHHPGRAPKVIIYDVTKRPSGVPDRFSGSKSGNTASLTISGLQAEDEADYYCSSYAGSYTWVFGGGTELTVLG
notes: Fully human antibody
B11: Ab14 (antibody, V domains shown)
VH: EVQLLESRAEVKKPGESLKISCKGSGYSFTSYWIGWVRQMPGKGPEWMGIIYPGDSDTRYSPSFQGQVTISADKSISTAYLQWSSLKASDTAMYYCARLVYGGYDEPGYYFDYWGQGTLVTVSS
VL: not shown
notes: Fully human antibody
B12: Ab12 (antibody, V domains shown)
VH: QVQLVQSGGGLIQPGGSLRLSCAASGFTVSSYSMNWVRQAPGKGLEWVSYISSSGSTIYYADSVKGRFTISRDNAKNSLYLQMNSLRAEDTALYYCAKVGTAAAGDAFDIWGQGTMVTVSS
VL: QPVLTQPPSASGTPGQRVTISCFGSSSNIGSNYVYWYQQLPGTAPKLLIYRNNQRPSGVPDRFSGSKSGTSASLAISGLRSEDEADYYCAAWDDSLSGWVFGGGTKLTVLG
notes: Fully human antibody

Where a chain is given by its changes, count along the chain named. In names and notes the source's numbering stands.

Sequence of proGDF11 (O95390 25-407 limits assumed): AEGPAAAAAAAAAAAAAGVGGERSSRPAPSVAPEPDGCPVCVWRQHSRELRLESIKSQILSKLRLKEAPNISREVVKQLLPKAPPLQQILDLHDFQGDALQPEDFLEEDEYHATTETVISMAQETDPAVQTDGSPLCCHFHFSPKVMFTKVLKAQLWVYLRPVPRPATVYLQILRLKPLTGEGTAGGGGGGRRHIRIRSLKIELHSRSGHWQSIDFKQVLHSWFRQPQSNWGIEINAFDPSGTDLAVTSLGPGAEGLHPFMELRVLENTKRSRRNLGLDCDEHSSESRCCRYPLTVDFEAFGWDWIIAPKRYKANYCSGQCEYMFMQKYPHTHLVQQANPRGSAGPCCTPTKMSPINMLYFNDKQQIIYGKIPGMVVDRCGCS

The first assay addresses T1, murine pro-myostatin (mouse, UniProt O08689 25-376). Kind of assay: cell-based or functional assay.
As for B1, the “Activity Assay - 293T cells EC50” value was 839 nM.

Another assay addresses T1, murine pro-myostatin. In words: ForteBio Octet BLI kinetics.
In turn, B2 had a Kd of 0.954 nM, a koff of 0.000281 s⁻¹ and a kon of 294000 M⁻¹ s⁻¹.

Another assay deals with T1, murine pro-myostatin. In words: cell-based or functional assay. This is another data set of the same source.
For the molecule B3, the “Activity Assay - 293T cells EC50” value was 447 nM.

Another assay has as its target T2, pro-myostatin (proGDF8), species not stated in the experiment (UniProt O14793 24-375, limits assumed).
T2 construct: also called pro/latent-myostatin
In words: ForteBio Octet, biotinylated antigen on streptavidin sensor; IgG1.
As for B4, binding was characterised by a dissociation constant (Kd) of 22000 nM.

B5 registered a Kd of 500 nM.

Turning to B6, the Kd turned out to be 28000 nM.

In turn, B7 had a Kd of 300 nM.

The target of a further assay is T1, murine pro-myostatin. In words: cell-based or functional assay. This is another data set of the same source.
For B4, the “Murine proGDF8 IC50, Reporter assay” value turned out to be 19900 nM.

As to B5, the “Murine proGDF8 IC50, Reporter assay” value was determined as 139000 nM.

On to B6, for which the “Murine proGDF8 IC50, Reporter assay” value stood at 1680 nM.

The target of a further assay is human pro-myostatin (human, UniProt O14793 24-375). In words: cell-based or functional assay.
With B4, the “Human proGDF8 IC50, Reporter assay” value came out at 12200 nM.

B5: the “Human proGDF8 IC50, Reporter assay” value was determined as 6040 nM.

B6: the “Human proGDF8 IC50, Reporter assay” value was 983 nM.

On to B7, for which the “Human proGDF8 IC50, Reporter assay” value is 772 nM.

The next assay has as its target T1, murine pro-myostatin. Kind of assay: cell-based or functional assay. This is another data set of the same source.
As to B5, the “EC50 Activation Assay” value stood at 1600 nM.

With B6, the “EC50 Activation Assay” value is 555 nM.

For B7, the “EC50 Activation Assay” value was found to be 373 nM.

As to B8, the “EC50 Activation Assay” value came to 1380 nM.

Another assay deals with T1, murine pro-myostatin. Kind of assay: ForteBio Octet BLI kinetics. This is another data set of the same source.
B1 registered an equilibrium dissociation constant (Kd) of 11 nM, a koff of 0.00262 s⁻¹ and a kon of 237000 M⁻¹ s⁻¹.

A further assay deals with murine latent GDF11 (murine, UniProt Q9Z1W4 21-296; Q9Z1W4 297-405, limits assumed). In words: ForteBio BLI.
Sequence of murine latent GDF11 (Q9Z1W4 21-296 limits assumed, chain 1 of 2): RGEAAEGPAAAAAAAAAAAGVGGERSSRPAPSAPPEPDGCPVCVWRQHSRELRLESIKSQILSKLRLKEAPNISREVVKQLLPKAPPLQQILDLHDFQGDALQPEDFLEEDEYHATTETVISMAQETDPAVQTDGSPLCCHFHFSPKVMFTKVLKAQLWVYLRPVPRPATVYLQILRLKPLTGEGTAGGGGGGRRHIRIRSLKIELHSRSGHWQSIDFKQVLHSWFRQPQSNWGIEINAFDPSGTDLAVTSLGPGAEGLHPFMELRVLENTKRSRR
Sequence of murine latent GDF11 (Q9Z1W4 297-405 limits assumed, chain 2 of 2): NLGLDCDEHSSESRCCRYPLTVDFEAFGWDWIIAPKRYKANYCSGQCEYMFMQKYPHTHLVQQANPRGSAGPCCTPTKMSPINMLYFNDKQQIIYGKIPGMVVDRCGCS
Take B4: the binding result is “no binding (tested: 200 nM)”.

For B5, the binding result is listed as “no binding (tested: 200 nM)”.

Regarding B6, the binding result is “no binding (tested: 200 nM)”.

B9: the binding result is recorded as “no binding (tested: 200 nM)”.

For the molecule B10, the binding result is on record as “no binding (tested: 200 nM)”.

In the case of B7, the binding result is recorded as “no binding (tested: 200 nM)”.

Turning to B11, the binding result is recorded as “no binding (tested: 200 nM)”.

With B12, the binding result is listed as “no binding (tested: 200 nM)”.

B8: the binding result is “no binding (tested: 200 nM)”.

The next assay has as its target T3, mature myostatin growth factor (UniProt O14793 267-375, limits assumed).
T3 construct: mature; Amine-coupled to the sensor tips; also called Mature GDF8
In words: ForteBio BLI.
Regarding B4, the binding result is “no binding (tested: 333 nM)”.

B5: the binding result is “no binding (tested: 333 nM)”.

Regarding B6, the binding result is reported as “no binding (tested: 333 nM)”.

Take B9: the binding result is given as “no binding (tested: 333 nM)”.

In the case of B10, binding was characterised by a dissociation constant (Kd) of 9.5 nM.

Consider B7, for which the binding result is recorded as “no binding (tested: 333 nM)”.

Molecule B11 registered a Kd of 2.1 nM.

For B12, the binding result is listed as “no binding (tested: 333 nM)”.

For the molecule B8, the binding result is given as “no binding (tested: 333 nM)”.

A further assay addresses T4, murine latent myostatin (mouse, UniProt O08689 25-267; O08689 268-376, Non-covalent complex of prodomain and growth factor; disulfide-linked homodimer, one copy of each chain is given.).
T4 construct: recombinant in BLI, endogenous in serum immunoprecipitation; also called Murine Latent GDF8; copies: 2 + 2
In words: ForteBio BLI.
B4 came in with a Kd of 7.8 nM.

B6 showed an equilibrium dissociation constant (Kd) of 28.4 nM.

As to B10, binding was put at a Kd of 11 nM.

In turn, B7 yielded a Kd of 4.2 nM.

In turn, B11 had a Kd of 18.8 nM.

For B12, the Kd came out at 1.9 nM.

Consider B8, for which the affinity, expressed as Kd, was 1.8 nM.

A further assay addresses T1, murine pro-myostatin. Kind of assay: ForteBio BLI.
In turn, B4 had a Kd of 8.5 nM.

With B5, binding was characterised by a dissociation constant (Kd) of 1.4 nM.

Regarding B6, the Kd was found to be 32.9 nM.

B9 displayed a Kd of 4.3 nM.

The molecule B10 came in with a Kd of 4.7 nM.

As to B7, binding was put at a Kd of 3.7 nM.

In the case of B12, the Kd was found to be 3.9 nM.

Molecule B8 returned a Kd of 1.6 nM.

The next assay deals with murine pro + latent GDF11 (murine, UniProt Q9Z1W4 21-405, limits assumed). Kind of assay: ForteBio BLI.
Sequence of murine pro + latent GDF11 (Q9Z1W4 21-405 limits assumed): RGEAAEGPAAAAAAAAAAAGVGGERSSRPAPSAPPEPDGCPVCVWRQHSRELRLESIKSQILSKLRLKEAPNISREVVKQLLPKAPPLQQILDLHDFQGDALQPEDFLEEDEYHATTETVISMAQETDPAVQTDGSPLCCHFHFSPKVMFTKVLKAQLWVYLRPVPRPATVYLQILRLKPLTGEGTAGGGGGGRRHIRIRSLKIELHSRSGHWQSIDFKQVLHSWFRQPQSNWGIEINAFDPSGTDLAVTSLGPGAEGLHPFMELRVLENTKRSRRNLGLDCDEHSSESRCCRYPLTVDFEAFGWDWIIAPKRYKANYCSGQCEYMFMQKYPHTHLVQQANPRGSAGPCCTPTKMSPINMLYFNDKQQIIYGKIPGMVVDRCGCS
As to B4, the binding result was “no binding (tested: 200 nM)”.

Regarding B5, the binding result is recorded as “no binding (tested: 200 nM)”.

As to B6, the binding result is given as “no binding (tested: 200 nM)”.

For the molecule B9, the binding result was “no binding (tested: 200 nM)”.

In the case of B10, the binding result is “no binding (tested: 200 nM)”.

As for B7, the binding result was “no binding (tested: 200 nM)”.

As for B11, the binding result is given as “no binding (tested: 200 nM)”.

As to B12, the binding result was “no binding (tested: 200 nM)”.

With B8, the binding result is listed as “no binding (tested: 200 nM)”.

In a further assay the target is T1, murine pro-myostatin. Kind of assay: ForteBio Octet BLI kinetics. This is another data set of the same source.
In turn, B3 had a dissociation constant (Kd) of 1.08 nM, a koff of 0.000272 s⁻¹ and a kon of 253000 M⁻¹ s⁻¹.

The target of another assay is T1, murine pro-myostatin. Kind of assay: cell-based or functional assay. The source holds these as a separate data set.
With B2, the “Activity Assay - 293T cells EC50” value worked out at 307 nM.

Another assay has as its target proGDF11 (UniProt O95390 25-407, limits assumed). Kind of assay: ForteBio Octet QKe BLI, antibody 50 µg/mL; flagged * non-specific binding, fitted to a poor response.
Method: Binding affinities of antibody candidates were determined using the FortéBio Octet QKe dip and read label free assay system utilizing bio-layer interferometry. Antigens were immobilized to biosensors (streptavidin-coated biosensors for proGDF8, proGDF11 and proActivin; direct amine coupling for all others) in each experiment and the antibodies/constructs were presented in solution at high concentration (50 μg/mL) to measure binding interactions.
B3 gave a Kd of 125 nM.

Molecule B2 yielded a Kd of 60.7 nM.
